Numbering of substitutions follows the chain as printed. Names and notes keep the numbering of the source.
B1: SG-11 (SEQ ID NO:7): Recombinant SG-11 with N-terminal methionine, 233 amino acids, no N-terminal tag (protein)
chain: MLEGEESVVYVGKKGVIASLDVETLDQSYYDETELKSYVDAEVEDYTAEHGKNAVKVESLKVEDGVAKLKMKYKTPEDYTAFNGIELYQGKVVASLAAGYVYDGEFARVEEGKVVGAATKQDIYSEDDLKVAIIRANTDVKVDGEICYVSCQNVKLTGKDSVSIRDGYYLETGSVTASVDVTGQESVGTEQLSGTEQMEMTGEPVNADDTEQTEAAAGDGSFETDVYTFIVYK
B2: SG-11V5: SG-11 variant SEQ ID NO:19 comprising N53S, N83S, C147V, C151S with respect to SEQ ID NO:7 (protein)
chain: B1 chain with N53S, N83S, C147V, C151S

Tests used:
[1] = test system: C57BL/6 mice given 2.5% DSS in drinking water; test: Concurrent (prophylactic) DSS model of inflammatory bowel disease (Example 4, Example 13A); assay type: in vivo, mouse; details: for 4KDa-FITC signal in serum / Colon length: vs DSS+vehicle; for Colon length: FIG. 22A
Protocol: Specifically, the mice in Examples 4 and 5 were treated with dextran sodium sulfate (DSS), a chemical known to induce intestinal epithelial damage and thereby reduce intestinal barrier integrity and function. DSS mice are well-accepted models of colitis. In Example 4, mice were treated with SG-11 protein approximately concurrent with (6 hours prior to) administration of DSS. In Example 5, mice were treated with DSS for 6 days prior to treatment with SG-11 protein.
The graphs presented in Example 4 represent data pooled from 3 independent experiments, each using 10 mice (n=30). The SG-11 protein used in these experiments was the mature protein (no signal peptide) without an N-terminal tag and comprising the amino acid sequence of SEQ ID NO:3. For 2 experiments, the SG-11 protein consisted of SEQ ID NO:5; for the third experiment, the SG-11 protein consisted of SEQ ID NO:7.
Eight-week old C57BL/6 mice were housed 5 animals were cage and given food and water ad libitum for 7 days. Following the 7-day acclimation period, treatments were initiated concurrently with addition of 2.5% DSS to the drinking water. […] The mice were treated with 2.5% dextran sodium sulfate (DSS) in their drinking water for 6 days. Treatments were continued with SG-11 or Gly2-GLP2 twice a day (b.i.d.) in the morning and evening (every 8 and 16 hr) with i.p. injections at 50 nmoles/kg. Fresh 2.5% DSS drinking water was prepared every 2 days.
On day six, mice were fasted for four hours and then orally gavaged with 600 mg/kg 4KDa dextran labeled with fluorescein isothiocyanate (FITC) [4KDa-FITC]. One hour after the 4KDa-FITC gavage mice were euthanized, blood was collected and FITC signal was measured in serum. […] The magnitude of 4KDa-FITC dextran translocation observed for SG-11 was similar to the positive control of Gly2-GLP2. Results are shown in FIG. 3, and are presented as mean±SEM. The graph in FIG. 3 represents data pooled from 3 independent experiments (n=30).
SG-11 was also assessed for its effects on the levels of LPS binding protein (LBP) in the blood of the DSS animal with and without SG-11 administration. LPS binding protein (LBP), which has been linked to clinical disease activity in subjects with inflammatory bowel disease, was also measured by ELISA in the serum of mice tested in the DSS model described in Example 4. […] Results are shown in FIG. 4, and are presented as mean±SEM. The graph in FIG. 4 represents data pooled from 3 independent experiments (n=30).
Body weight was measured daily from mice included in the DSS model described in this Example. Percent change from starting weight on day 0 was determined for each mouse. […] Weight loss in mice treated with SG-11 at day 6 was similar to weight loss observed with Gly2-GLP2. The graph in FIG. 5 represents data pooled from two independent experiments (n=20).
Gross pathology observations were made in mice included in the concurrent DSS model performed in this Example. […] No differences in clinical scores were observed between mice given DSS and treated with either Gly2-GLP2 or SG-11. The scoring system used was: (0)=no gross pathology, (1)=streaks of blood visible in feces, (2)=completely bloody fecal pellets, (3) bloody fecal material visible in cecum, (4) bloody fecal material in cecum and loose stool, (5)=rectal bleeding. The graph in FIG. 6 represents data pooled from 3 independent experiments (n=30).
Colon length was measured in mice included in the DSS model described in Example 7. […] The graphs in FIGS. 8A and 8B represent data pooled from 3 independent experiments (n=30). Data are graphed as mean±SEM and are pooled from three independent experiments (n=30). Statistical analysis was performed by a one-way ANOVA followed by a Fisher's LSD multiple comparisons test.
Briefly, in the first DSS mouse model (Example 13A), mice were treated on day zero with test compound intraperitoneally (i.p.) and 6 hours later DSS treatment was initiated. […]

[2] = test system: human colonic epithelial cells (HCT8 enterocytes and HT29-MTX goblet cells) co-cultured with U937 monocytes; test: In vitro trans-epithelial electrical resistance (TEER) co-culture assay, barrier disruption by heat killed E. coli; assay type: cell-based; details: Example 12; 1 μg/ml (40 nM), 6 hours pre-incubation; HK E. coli alone 78.6%; FIG. 17
Protocol: Assays were performed as described below in trans-well plates where co-cultures of multiple cell types were performed utilizing a permeable membrane to separate cells. In the apical (top) chamber, human colonic epithelial cells, consisting of a mixture of enterocytes and goblet cells, were cultured until cells obtained tight junction formation and barrier function capacity as assessed by measurement of trans-epithelial electrical resistance (TEER). In the basolateral chamber, monocytes were cultured separately. Epithelial cells were primed with inflammatory cytokines. The assays measured the effect of a therapeutic protein, i.e., SG-11, on epithelial barrier function, muc2 gene expression, and production of cytokines.
Cell culture. The HCT8 human enterocyte cell line (ATCC Cat. No. CCL-244) was maintained in RPMI-1640 medium supplemented with 10% fetal bovine serum, 100 IU/ml penicillin, 100 μg/ml streptomycin, 10 μg/ml gentamicin and 0.25 μg/ml amphotericin (cRPMI). […]
Epithelial cell culture. […] Epithelial cells were trypsinized from culture flasks and viable cells determined by trypan blue counting. […]
Co-culture assay. […] Trans-epithelial electrical resistance (TEER) readings were measured after the IFN-γ treatment and were used as the pre-treatment TEER values. […]

Row | Molecule | 4KDa-FITC signal in serum ([1]; Example 13A, 50 nmoles/kg i.p. twice a day, p=0.04, FIG. 18A) | Colon length ([1]; Example 13A) | TEER after HK E. coli (normalized, relative to untreated samples) [2] | Gross pathology score (0-5) ([1]; Example 13, 160 nmoles/kg, dose dependent effect, p<0.002, FIG. 21) | 4KDa-FITC signal in serum ([1]; Example 13, FIG. 18B, p=0.21) | LBP in serum (ELISA) ([1]; Example 13A, 158 nmoles/kg i.p. twice a day, p=0.003, FIG. 19A) | Body weight ([1]; Example 13A, 158 nmoles/kg, day 6, FIG. 20A) | Dose dependence of effect on colon length ([1]; prophylactic DSS model, 16, 50 and 158 nmoles/kg)
1 | B1 | significantly reduced the 4KDa-FITC signal | significant increase in the colon length | 89.5% | – | – | – | – | –
2 | B2 | – | significant increase in the colon length | 89.1% | significant improvement | also reduced the 4KDa-FITC signal, although the difference was not reach statistical significance | significant reduction in LBP production | significant improvement in body weight | no dose-dependent effect on colon length
